According to patent US20250179152A1 (TEXAS A AND M UNIVERSITY SYSTEM, published 2025):

Biological target: RBD protein of SARS-COV-1 (SARS-CoV-1, UniProt P59594 306-527)
Experiment: ELISA ('the same binding assay')

B1: FSR16m (designed binder)
chain: MGMEQKLISEEDLDGYIPEAPRDGQAYVRKDGEWVLLSTFLGGGGSLQGGGGSLQGSDLGKKLLEAARAGQDDEVRILMANGADVNALDLFGVTPLHLAAERGHLEIVEVLLKNGADVNAGDAFGRTPLHLAALGGHLEIVEVLLKNGADVNACDLYGVTPLHLAAGLGHLEIVEVLLKNGADVNAQDKFGKTAFDISIDNGNEDLAEILQSSSKLAAALEHHHHHH
binding result: no binding
